Consider three molecules from US8530168B2, “Fusion protein comprising a Caspase domain and a nuclear hormone receptor binding domain and methods and uses thereof” (Helmholtz Zentrum Munich Deutsches Forschungszentrum fuer …, priority 2007, dated 2013).

The subject of series [1] is MEF5/N9 cells. Kind of series: Transient cotransfection of ER(T2) fusion expression vectors with β-galactosidase reporter; β-galactosidase activity in lysates. The format is cell-based, mouse. To be noted: 10^−8 M 4-OH-tamoxifen, 48 h; for relative β-galactosidase activity in presence of 4-OH-tamoxifen compared to the negative control: relative to Cre-ER(T2) without 4-OH-tamoxifen. On the procedure:
The transformed mouse embryonic fibroblast cell line MEF5/N9 (Schwenk et al., Nucleic Acids Research, 26(6) 1427-1432 (1998)) was obtained from Michel Aguet (University of Zurich, Switzerland). The cells were grown in DMEM medium (Life Technologies) supplemented with 2 mM […] and 10% fetal calf serum at 37° C., 5% CO2 in humid atmosphere and passaged upon trypsinization. One day before transient transfection 4·10^4 cells were plated into a 24-well plate (Falcon). For the transient transfection of MEF5/N9 cells with plasmids, each well received into 500 μl of medium a total amount of 150 ng or 200 ng supercoiled plasmid DNA complexed before with the FuGene6 transfection reagent (Roche Diagnostics GmbH, Mannheim, Germany) according to the manufacturer's protocol. Each 150 ng or 200 ng DNA preparation (FIG. 2 sample 1 to 11) contained 100 ng of the β-Galactosidase expression vector pCMV-β-gal-pA (pCMVβ, Clontech, FIG. 1G, SEQ ID NO: 56), and 100 ng of the fusion ER(T2) expression vectors to be tested (FIG. 2 sample 3-7, 10-11) and the control plasmids (FIG. 2 sample 1-3), except for the samples with the plasmids pCAG-Casp9full-ER(T2)-bpA (FIG. 2 sample 8) and pCAG-Casp9trunc-ER(T2)-bpA (FIG. 2 sample 9), respectively, that received 50 ng of the test vector. For each sample to be tested four individual wells were transfected. Five hours after the addition of the DNA preparations each well received additional 500 μl of growth medium. The following day, the medium of two wells of each sample was replaced by fresh medium. The other two wells received medium containing 10^−8 M 4-hydroxy-tamoxifen (Sigma). 48 hours after induction with 4-OH-tamoxifen, the cells of each well were lysed with 200 μl lysate reagent supplemented with protease inhibitors (Roche Diagnostics GmbH). The lysates were centrifuged and 50 μl were used to determine the β-galactosidase activities using the β-galactosidase reporter gene assay (Roche Diagnostics GmbH) according to the manufacturer's protocol in a microplate luminometer (Berthold Detection Systems GmbH). The mean value and standard deviation of the samples was calculated from the β-galactosidase RLU values obtained from the two transfected wells of each sample. The relative β-galactosidase activity was obtained by comparison to the negative control (pCAG-Cre-ER(T2)-bpA) without 4-OH-tamoxifen.
To investigate the cell death effect of the different ER(T2) fusion constructs quantitatively, we performed transient cotransfections of the ER(T2) fusion protein expression vectors together with a fixed amount of a reporter plasmid coding for β-galactosidase in MEF5/N9 fibroblast cells. Transfected cells were treated 12 hours after transfection with 4-OH-tamoxifen at a concentration of 10^−8 M. Following 48 hours of 4-OH-tamoxifen induction, the cells from the various samples were lysed and the activity of β-galactosidase in the lysates was determined by a chemiluminescence assay and expressed in “Relative Light Units” (RLU) (FIG. 2). As positive controls for 4-OH-tamoxifen-inducible cell death, we prepared samples transfected with the constructs pCAG-HAFas-ER(T2) or pCAG-MFas-ER(T2) together with the reporter plasmid and treatment with 4-OH-tamoxifen. As negative control for this assay served samples which received the reporter plasmid together with the expression vector pCAG-Cre-ER(T2) and that were treated with 4-OH-tamoxifen.
To determine the relative activity of the tested ER(T2) fusion constructs inducing apoptosis in the presence of 4-OH-tamoxifen, the RLU values of β-galactosidase activity were divided individually for each sample by the RLU value obtained from the sample which received the plasmid pCAG-Cre-ER(T2) but was not treated with 4-OH-tamoxifen (defined as negative control). The relative activity of the tested Caspase- or bax-ER(T2) fusion proteins was then compared to the negative control for 4-OH-tamoxifen-dependent cell death defined as an activity of 1.

Series [2] has as its system HeLa cells. Kind of series: Transient cotransfection with β-galactosidase reporter into HeLa cells. The format is cell-based, human. Particulars: 10^−8 M 4-OH-tamoxifen, Cre-ER(T2) as reference, range given jointly for HeLa and Pac2. The method, then:
(§1) Results are shown as mean values of triplicate samples with standard deviation. (b) Transient cotransfection of a β-galactosidase reporter with a Cre-ER(T2), myrCasp8-ER(T2), or Casp9-ER(T2) expression plasmid into murine M5/N9 (black columns), human HeLa (grey columns) or zebrafish Pac2 (open columns) cells. 12 h following transfection, cells were cultured for 36 h with 4-OH-tamoxifen at 10^−8 M and the activity of β-galactosidase in cell lysates was determined. Values obtained from transfections of the Cre-ER(T2) vector were defined as reference. Results are shown as mean values of triplicate samples with standard deviation.
Transient transfections into M5/N9 and HeLa cells were performed with FuGene transfection reagent (Roche) following the manufacturer's instructions. Briefly, semiconfluent cultures in a 24-well plate were transfected in triplicate with 112 ng of the β-galactosidase expression vector CMVβ(Invitrogen) and the same amount of pCAG-Cre-ER(T2), pCAG-Casp8-ER(T2) or pCAG-Casp9-ER(T2) plasmid DNA. After 12 h 4-OH-tamoxifen was added at a concentration of 10^−8 M and the cultures were lysed at 48 h. Cell lysis and the measurement of β-galactosidase activity by chemiluminescence were performed with the β-galactosidase reporter gene assay (Roche) using a Centro LB960 plate luminometer (Berthold). […]

For series [3], the system named is Pac2 cells. Kind of series: Transient cotransfection with β-galactosidase reporter into Pac2 cells. Particulars: 10^−8 M 4-OH-tamoxifen, Cre-ER(T2) as reference, range given jointly for HeLa and Pac2. The class given is cell-based, zebrafish. On the procedure: as §1
PAC2 zebrafish fibroblasts were grown in Leibowitz's L15—with L-Glutamine medium supplemented with 1% Non-essential Amino Acids, 1% Penicillin/Streptomycin and 10% fetal calf serum (all Gibco) at 28° C. 3×10^6 Cells were transiently transfected with the plasmids CMVβ together with CAG-CreER(T2), CAG-myrCasp8ER(T2) or CAG-Casp9ER(T2) (500 ng each) using nanofectin transfection reagent (PAA). 24 hrs after transfection the medium was replaced and conditioned with 10^−8 M 4-OH-tamoxifen. Before lysis, the cells were incubated for another 24 hrs at 28°. […]

B1: myrCasp8-ER(T2): murine Caspase-8 domain with N-terminal myristoylation motif fused to ER(T2) ligand binding domain, SEQ ID NO: 23 (protein)
chain: MGSSKSKPKDPSQRSESRTSDKVYQMKNKPRGYCLIINNHDFSKAREDITQLRKMKDRKGTDCDKEALSKTFKELHFEIVSYDDCTANEIHEILEGYQSADHKNKDCFICCILSHGDKGVVYGTDGKEASIYDLTSYFTGSKCPSLSGKPKIFFIQACQGSNFQKGVPDEAGFEQQNHTLEVDSSSHKNYIPDEADFLLGMATVKNCVSYRDPVNGTWYIQSLCQSLRERCPQGDDILSILTGVNYDVSNKDDRRNKGKQMPQPTFTLRKKLFFPPLEPSAGDMRAANLWPSPLMIKRSKKNSLALSLTADQMVSALLDAEPPILYSEYDPTRPFSEASMMGLLTNLADRELVHMINWAKRVPGFVDLTLHDQVHLLECAWLEILMIGLVWRSMEHPVKLLFAPNLLLDRNQGKCVEGMVEIFDMLLATSSRFRMMNLQGEEFVCLKSIILLNSGVYTFLSSTLKSLEEKDHIHRVLDKITDTLIHLMAKAGLTLQQQHQRLAQLLLILSHIRHMSNKGMEHLYSMKCKNVVPLYDLLLEAADAHRLHAPTSRGGASVEETDQSHLATAGSTSSHSLQKYYITGEAEGFPATA
modifications: N-terminal myristoylation motif; fusion protein myrCasp8-ER(T2)
For B1, in series [1], the “relative β-galactosidase activity in presence of 4-OH-tamoxifen compared to the negative control” value is reported as 0.1%. Moreover, the “reduction of β-Galactosidase activity in presence of 4-OHT” value in series [2] and in series [3] was 95-99% each time.

B2: Cre-ER(T2): fusion of Cre recombinase to ER(T2) ligand binding domain, negative control, SEQ ID NO: 5 (protein)
chain: MSNLLTVHQNLPALPVDATSDEVRKNLMDMFRDRQAFSEHTWKMLLSVCRSWAAWCKLNNRKWFPAEPEDVRDYLLYLQARGLAVKTIQQHLGQLNMLHRRSGLPRPSDSNAVSLVMRRIRKENVDAGERAKQALAFERTDFDQVRSLMENSDRCQDIRNLAFLGIAYNTLLRIAEIARIRVKDISRTDGGRMLIHIGRTKTLVSTAGVEKALSLGVTKLVERWISVSGVADDPNNYLFCRVRKNGVAAPSATSQLSTRALEGIFEATHRLIYGAKDDSGQRYLAWSGHSARVGAARDMARAGVSIPEIMQAGGWTNVNIVMNYIRNLDSETGAMVRLLEDGDLEPSAGDMRAANLWPSPLMIKRSKKNSLALSLTADQMVSALLDAEPPILYSEYDPTRPFSEASMMGLLTNLADRELVHMINWAKRVPGFVDLTLHDQVHLLECAWLEILMIGLVWRSMEHPVKLLFAPNLLLDRNQGKCVEGMVEIFDMLLATSSRFRMMNLQGEEFVCLKSIILLNSGVYTFLSSTLKSLEEKDHIHRVLDKITDTLIHLMAKAGLTLQQQHQRLAQLLLILSHIRHMSNKGMEHLYSMKCKNVVPLYDLLLEAADAHRLHAPTSRGGASVEETDQSHLATAGSTSSHSLQKYYITGEAEGFPATA
modifications: fusion protein Cre-ER(T2)
As for B2, in series [1], the “4-OH-tamoxifen-dependent activity / toxicity in transient transfection (in words)” value is “Neither the expression of the negative control Cre-ER(T2) alone nor the combined treatment with 4-OH-tamoxifen at the concentration of 10^−8 M displayed toxic side effects”.

B3: Casp8-ER(T2): fusion of murine Caspase-8 domain to the ER(T2) ligand binding domain, SEQ ID NO: 20 (protein)
chain: MSESRTSDKVYQMKNKPRGYCLIINNHDFSKAREDITQLRKMKDRKGTDCDKEALSKTFKELHFEIVSYDDCTANEIHEILEGYQSADHKNKDCFICCILSHGDKGVVYGTDGKEASIYDLTSYFTGSKCPSLSGKPKIFFIQACQGSNFQKGVPDEAGFEQQNHTLEVDSSSHKNYIPDEADFLLGMATVKNCVSYRDPVNGTWYIQSLCQSLRERCPQGDDILSILTGVNYDVSNKDDRRNKGKQMPQPTFTLRKKLFFPPLEPSAGDMRAANLWPSPLMIKRSKKNSLALSLTADQMVSALLDAEPPILYSEYDPTRPFSEASMMGLLTNLADRELVHMINWAKRVPGFVDLTLHDQVHLLECAWLEILMIGLVWRSMEHPVKLLFAPNLLLDRNQGKCVEGMVEIFDMLLATSSRFRMMNLQGEEFVCLKSIILLNSGVYTFLSSTLKSLEEKDHIHRVLDKITDTLIHLMAKAGLTLQQQHQRLAQLLLILSHIRHMSNKGMEHLYSMKCKNVVPLYDLLLEAADAHRLHAPTSRGGASVEETDQSHLATAGSTSSHSLQKYYITGEAEGFPATA
modifications: fusion protein Casp8-ER(T2)
Turning to B3, the “relative β-galactosidase activity in presence of 4-OH-tamoxifen compared to the negative control” value in series [1] worked out at 3%.
